Source: article PMC5056641

Biological target: His-CLK1(ΔN) (mouse)
Experiment: kinetic competition

Chain of SRSF1 (His-tagged) (Q07955 whole entry): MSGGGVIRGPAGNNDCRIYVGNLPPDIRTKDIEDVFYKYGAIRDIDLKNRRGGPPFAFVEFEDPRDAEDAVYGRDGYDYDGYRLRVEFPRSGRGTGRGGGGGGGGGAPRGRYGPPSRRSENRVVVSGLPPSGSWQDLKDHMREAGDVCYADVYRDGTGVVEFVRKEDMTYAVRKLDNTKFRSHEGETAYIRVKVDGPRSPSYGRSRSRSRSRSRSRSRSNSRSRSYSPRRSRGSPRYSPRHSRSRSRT

- Ki: 300 nM
Substance: SRSF1 (His-tagged) (from UniProt Q07955 1-248) (natural protein)
